Measured values as given in the supplement of paper PMC9170038.

Legend:
MS2 coat protein [1] = experiment: apparent KD of MS2 coat protein, switch ON state; designed switch direction (-1 OFF switch, 1 ON switch): -1; higher = weaker reporter binding; conditions: FMN input: 0 or 200 uM; Eterna round: R93 (includes R88 designs)
Summary of the method: (§1)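 Apparent KD is reported per design as the median of normalised binding-curve fits across its clusters. The RNA switches were made by on-chip transcription from Illumina sequencing clusters. SNAP-549-labelled MS2 coat protein was then added in twofold steps (0.7 or 1.5 nM to 3 µM; 0.8–1.5 h to 10–20 min per step) in 100 mM Tris-HCl pH 7.5, 80 mM KCl, 4 mM MgCl2, without or with constant ligand.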

MS2 coat protein [2] = experiment: apparent KD of MS2 coat protein, switch OFF state (with FMN for OFF switches, without FMN for ON switches); designed switch direction (-1 OFF switch, 1 ON switch): -1; higher = weaker reporter binding; conditions: FMN input: 0 or 200 uM; Eterna round: R93 (includes R88 designs)
Summary of the method: as §1

| Sequence | apparent KD of MS2 coat protein (MS2 coat protein [1]) [nM] | apparent KD of MS2 coat protein (MS2 coat protein [2]) [nM] |
| --- | --- | --- |
| GAAAAGUGAGGAUAUUCGGAUAGGAAAACGAAAACCUAUCCGAAGAAGGCACAUGAGGAUCACCCAUGUGGAAG [Mat - Exaclusion 4 - Eli mod - D46] | 26.1 | 30.7 |
| GAAAAUGGAGGAUAUACAUGAGGAUCACCCAUGUGUAUAAAAAAAUACACAAAAGAAAGUAGAAGGCCAUAAAG [Mat - Exclusion 3 - Mayanna mod - D101] | 31.4 | 114 |
| GAAAGGGCAGGAUAUGCAGAGAGAGAGAGAGAGAGAGAGAAACAUGAGGAUCACCCAUGUAGAAGGGCCGAAAG [salish99-ex2-07] | 30.9 | 29.2 |
| GAAAUACAUGAGGAUCACCCAUGUGAGGAUAUGCUAUGGAAAUAAAAAAUAAAACAUAGCAGAAGGUACAAAAG [Mat - Exclusion 1 - Eli mod - D43] | 21.8 | 54.6 |
| GAAGAACAUGAGGAUCACCCAUGUCAGGAUAUACAGAAGGGAAUAAAAUAACCUGAAAGUAGAAGGGACAAGAA [Ex 1 May 42] | 29 | 57.2 |
| GAAGUGUUAGGAUAUCGAUGAAUAAUAAAACAAAGGAACAUUGAGAAGGAACAUGAGGAUCACCCAUGUAUAAC [May 81] | 27.7 | 25.2 |
| GAGAAGUGAGGAUAUCGAAGACAGACGAAAAGUCUGUCAAACGAGAAGGCACAUGAGGAUCACCCAUGUGGGAA [Mat - Exaclusion 4 - Eli mod - D76] | 75.8 | 140 |
| GAGAAGUGAGGAUAUCGAAGACAGACGAAAAGUCUGUCAAACGAGAAGGCACAUGAGGAUCACCCAUGUGGGAG [Mat - Exaclusion 4 - Eli mod - D75] | 81.2 | 302 |
| GAGGUAUGAGGAUAUACAUAGAUACAGACACAUGUUCAAGUACAUGAGGAUCACCCAUGUAGAAGGCAUAUAUC [Mat - Same state - Mayanna Mod - D105] | 22 | 37.2 |
| GCUGUGCAAGGAUAUACAUGAGGAUCACCCAUGUGAGAGAAAAAAGUGAGAAAGAAAAGUAGAAGGUGCGUAGG [salish99-ex3-99] | 36.5 | 43.3 |
| GCUUGGCAAGGAUAUACAUGAGGAUCACCCAUGUGAGAGAAAAAAGUGAGAAAGAAAAGUAGAAGGUGUUGAGG [salish99-ex3-76] | 44.4 | 48.9 |
| GCUUGGGUAGGAUAUACAUGAGGAUCACCCAUGUGAGAGAAAAAAGUGAGAAAGAAAAGUAGAAGGACUUGAGG [salish99-ex3-83] | 177 | 174 |
| GGAAAACAUGAGGAUCACCCAUGUAAGGAUAUGCAAAAGGAUAUAGAAGGAAAAAAAAGCAGAAGGUACAAAGG [salish99-ex1-21] | 32.5 | 151 |
| GGAAAACAUGAGGAUCACCCAUGUGAGGAUAUCCAGGAUAUAGAAGGAGGAUAUAGAAGGAGAAGGCACGAAGG [salish99-ex1-18] | 28.6 | 33.1 |
| GGAAAACAUGAGGAUCACCCAUGUGAGGAUAUCGAUGUCCAAAAAAAAGUGCGGGACUCGAGAAGGCACUUGGC [salish99-ex1-33] | 51.5 | 34.3 |
| GGAAAGCAAGGAUAUGCAAACAAACAAACAAACAAAAGGGAACAUGAGGAUCACCCAUGUAGAAGGUGCAAACA [Exclusion 2 Two redone] | 41.9 | 28.6 |
| GGAAAGCGAGGAUAUACAUGAGGAUCACCCAUGUAAAAGAAAAGAAAAGAAAGAAAAUGUAGAAGGCGCAAAAA [Exclusion 3 plus] | 53.5 | 54.4 |
| GGAACACAUGAGGAUCACCCAUGUCAGGAUAUGUAGAUAAAAAGAAAAUAAAAUAAAAACAGAAGGGACAAAAG [May 3] | 76 | 73.3 |
| GGAGGCGAAGGAUAUACAUGAGGAUCACCCAUGUGAGAGAAAAAAGUGAGAAAGAAAAGUAGAAGGUCGUUUCG [salish99-ex3-128] | 43.5 | 81 |
| GGAGGCGUAGGAUAUACAUGAGGAUCACCCAUGUGAGAGAAAAAAGUGAGAAAGAAAAGUAGAAGGACGUUUCG [salish99-ex3-127] | 45.4 | 92.1 |

| Sequence | apparent KD of MS2 coat protein (MS2 coat protein [1]) [nM] | apparent KD of MS2 coat protein (MS2 coat protein [2]) [nM] |
| --- | --- | --- |
| GGAUGCGAAGGAUAUACAUGAGGAUCACCCAUGUGAGAGAAAAAAGUGAGAAAGAAAAGUAGAAGGUCGUGUCG [salish99-ex3-93] | 28.8 | 97.2 |
| GGGUCACAUGAGGAUCACCCAUGUAAGGAUAUGCUAGGGAUGGAAACCAGGCCGCAACGCAGAAGGUACUAAAG [Janelle Amethyst 18 Mod 13 - Jieux - Exclusion 1] | 50.7 | 64.5 |
| GGUUGGCGAGGAUAUACAUGAGGAUCACCCAUGUGAGAGAAAAAAGAGAGAAAGAAAAGUAGAAGGCGCUGACG [salish99-ex3-52] | 47.9 | 97.8 |
| GGUUGGCGAGGAUAUACAUGAGGAUCACCCAUGUGAGAGAAAAAAGUGAGAAAGAAAAGUAGAAGGCGCUGACA [salish99-ex3-03] | 58.8 | 283 |
| GGUUGGCGAGGAUAUACAUGAGGAUCACCCAUGUGAGAGAAAAAAGUGAGACAGAAAAGUAGAAGGCGCUGACG [salish99-ex3-24] | 65.8 | 7.45 |
| GGUUGUGGAGGAUAUACAUGAGGAUCACCCAUGUGAGAGAAAAAAGUGAGAAAGAAAAGUAGAAGGUCAUGACG [salish99-ex3-65] | 33.8 | 46.8 |
| GGUUUGGUAGGAUAUACAUGAGGAUCACCCAUGUGAGAGAAAAAAGUGAGAAAGAAAAGUAGAAGGACCGGACG [salish99-ex3-123] | 39.9 | 102 |
| GUCAGCUGAGGAUAUACAGGUGAGGCCGCAGGACAAAAUAUACAUGAGGAUCACCCAUGUAGAAGGCGGAAGAC [Vegea] | 33.8 | 44.5 |
| GUCAGCUGAGGAUAUACAGGUGAUGCCGCAGAACAAAAUAUACAUGAGGAUCACCCAUGUAGAAGGCGGAAGAC [Terian] | 49.4 | 44.1 |
| GUGUACAGAGGAUAUACAUGGGCAUGAAAACAUGCAUCCUCACAUGAGGAUCACCCAUGUAGAAGGCUGUACAC [Ex2: 706] | 24.5 | 25.7 |
| UAAAAGCGAGGAUAUACAUGAGGAUCACCCAUGUGAAAGAAAAAUAAAAAAAAAAAAAGUAGAAGGCGCUAAAA [Ex 3 #2] | 58.9 | 65.7 |
| UAAAAGUGAGGAUAUUCGGAUAGGAAAACGAAAACCUAUCCGAAGAAGGCACAUGAGGAUCACCCAUGUAAAAU [Mat - Exaclusion 4 - Eli mod - D37] | 33.1 | 48 |
| UAAAGACAUGAGGAUCACCCAUGUGAGGAUAUAGGUGUAUGCAAAAAAAAGCAUACACCUAGAAGGCACAGAAA [JR_Exc001_Sub303] | 44 | 76.3 |
| UAAAGACAUGAGGAUCACCCAUGUGAGGAUAUCGGAGGUGACGGAGCAUCGAGUUCGGCGAGAAGGCGCAGGAA [JR_Exc001_Sub409] | 67.2 | 53.4 |
| UAAAGACAUGAGGAUCACCCAUGUGAGGAUAUGUGAGACAACAGAACAUCAAGUACAAGCAGAAGGCACAGAAA [JR_Exc001_Sub019] | 51.8 | 62.7 |
| UAAAGGAUAGGAUAUACAUGAGGAUCACCCAUGUGAAUAAAUAAAAAAAUAAAAUAAAGUAGAAGGAUCAAUAA [LROPPY Exclusion 3 - v04_deltaG=3.9 break up As] | 32.2 | 34 |
| UAAAGGAUAGGAUAUACAUGAGGAUCACCCAUGUGAAUAAAUAAGAAAAUAAAAGAAAGUAGAAGGAUCAAGAA [LROPPY Exclusion 3 - v04_deltaG=3.9 break up As mixed] | 25.2 | 29.6 |
| UAAAGGCGAGGAUAUACAUGAGGAUCACCCAUGUGAAUAAAUAAGAAAAUAAAAGAAAGUAGAAGGCGCAAGAA [LROPPY Exclusion 3 - v03_deltaG=1.9 break up As mixed] | 44.1 | 44.9 |
| UAAAGGCGAGGAUAUACAUGAGGAUCACCCAUGUGAAUAAAUAAUAAAAUAAAAUAAAGUAGAAGGCGCAAUAA [LROPPY Exclusion 3 - v03_deltaG=1.9 break up As] | 53.9 | 43.2 |
